The values that follow come from patent publication US20190367620A1 (Merck KGaA, published 2019).

As usually defined, the EC50 (read off the curve) is the concentration needed to bring the measured effect to its halfway point. A low value points to higher potency in that assay. In general, Kd refers to the constant that tells how readily two partners part at equilibrium. A lower Kd goes with a tighter complex.

Assay [1] addresses T1, human FGFR1b-IIIb extracellular domain with a HIS tag (human).
T1 construct: also called huFGFR1b-IIIb; hFGFR1b-IIIb
T1 chain: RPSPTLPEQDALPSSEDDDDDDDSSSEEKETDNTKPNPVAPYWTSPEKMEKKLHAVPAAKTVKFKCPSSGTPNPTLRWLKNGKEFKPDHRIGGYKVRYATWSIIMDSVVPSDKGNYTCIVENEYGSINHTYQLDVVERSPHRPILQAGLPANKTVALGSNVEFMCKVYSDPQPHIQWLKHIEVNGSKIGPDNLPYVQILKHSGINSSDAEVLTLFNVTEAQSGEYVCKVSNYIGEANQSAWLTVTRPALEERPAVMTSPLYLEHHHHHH
Description: ELISA, antibody titrated on huFGFR1b-IIIb, O.D. 450 nm [panel huFGFR1b-IIIb].

For assay [2], the target named is T2, FGFR1 D2 point mutant K52A (human, UniProt P11362 22-254).
T2 chain: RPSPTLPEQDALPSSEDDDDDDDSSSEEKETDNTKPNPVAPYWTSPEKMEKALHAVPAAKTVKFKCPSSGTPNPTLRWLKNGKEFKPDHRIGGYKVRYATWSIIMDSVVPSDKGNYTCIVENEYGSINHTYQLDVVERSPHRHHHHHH
Put plainly: SPR as in Example 1.8. The protocol:
(§1) Binding affinities of anti-FGFR1 antibodies to FGFR1 were measured by Surface Plasmon Resonance (SPR) using a GE Healthcare BIAcore 4000 instrument as follows. Goat anti-human Fc antibody (Jackson ImmunoResearch Laboratories #109-005-098) was first immobilized on BIAcore carboxymethylated dextran CM5 chip using direct coupling to free amino groups following the procedure described by the manufacturer. Antibodies were then captured on the CM5 biosensor chip to achieve approximately 200 response units (RU). Binding measurements were performed using the running HBS-EP+ buffer. A 2-fold dilution series of His-tagged FGFR1 proteins were injected at a flow rate of 30 μl/min at 25° C. Association rates (kₒₙ, per mol/s) and dissociation rates (koff, per s) were calculated using a simple 1:1 Langmuir binding model (Biacore 4000 Evaluation Software). The equilibrium dissociation constant (KD, mol) was calculated as the ratio of koff/kₒₙ.
(§2) To obtain a finer, residue-level mapping of the epitope and to complement the HD exchange data, molecular modelling and manual inspection of the crystal structure of FGFR1 [(Beenken et al. 2012); PDB record 3OJV] was used to select solvent exposed residues within and around the epitope identified by HD exchange. The selected residues were mutated either to alanine (large to small) or to glycine if the selected residue was alanine. In total 35 point mutants were designed, expressed and purified in HEK cells, and tested for binding to mAb #A08 using surface plasmon resonance as described in Example 1.8. The affinity of the antibody for wild-type and each mutant was determined and used to calculate the contribution of each epitope residue to the binding energy.

Assay [3] has as its target T3, FGFR1 D2 point mutant V56A (human, UniProt P11362 22-254).
T3 chain: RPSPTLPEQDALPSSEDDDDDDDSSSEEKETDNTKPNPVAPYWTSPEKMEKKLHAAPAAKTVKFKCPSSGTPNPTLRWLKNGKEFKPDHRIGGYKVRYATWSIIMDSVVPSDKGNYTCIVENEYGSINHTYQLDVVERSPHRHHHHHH
Put plainly: SPR as in Example 1.8. How it is done: as §1, §2

Assay [4] deals with T4, FGFR1 D2 point mutant P87A (human, UniProt P11362 22-254).
T4 chain: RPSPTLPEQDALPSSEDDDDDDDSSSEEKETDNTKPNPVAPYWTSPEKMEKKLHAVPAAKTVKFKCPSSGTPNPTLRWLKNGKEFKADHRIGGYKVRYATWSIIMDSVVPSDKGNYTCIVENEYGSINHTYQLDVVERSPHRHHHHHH
Description: SPR as in Example 1.8. The protocol: as §1, §2

In assay [5] the target is T5, FGFR1 D2 point mutant S45A (human, UniProt P11362 22-254).
T5 chain: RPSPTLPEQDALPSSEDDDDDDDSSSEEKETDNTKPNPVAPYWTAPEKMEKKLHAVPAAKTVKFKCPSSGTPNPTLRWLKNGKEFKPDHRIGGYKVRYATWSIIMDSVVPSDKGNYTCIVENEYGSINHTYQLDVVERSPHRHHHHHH
Description: SPR as in Example 1.8. The protocol: as §1, §2

In assay [6] the target is T6, human FGFR1b-IIIc extracellular domain with a HIS tag (human, UniProt P11362 22-376).
T6 construct: also called huFGFR1b-IIIc; hFGFR1b-IIIc
T6 sequence: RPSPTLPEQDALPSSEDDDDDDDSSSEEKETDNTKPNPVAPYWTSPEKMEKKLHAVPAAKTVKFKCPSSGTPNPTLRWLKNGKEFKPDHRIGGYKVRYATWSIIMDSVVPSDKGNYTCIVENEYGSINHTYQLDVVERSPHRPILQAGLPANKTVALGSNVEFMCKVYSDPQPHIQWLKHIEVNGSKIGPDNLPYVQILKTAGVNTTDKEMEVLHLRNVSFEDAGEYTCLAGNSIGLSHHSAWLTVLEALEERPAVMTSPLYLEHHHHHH
Description: SPR as in Example 1.8. The protocol: as §1, §2

Assay [7] addresses T7, FGFR1 D2 point mutant G92A (human, UniProt P11362 22-254).
T7 chain: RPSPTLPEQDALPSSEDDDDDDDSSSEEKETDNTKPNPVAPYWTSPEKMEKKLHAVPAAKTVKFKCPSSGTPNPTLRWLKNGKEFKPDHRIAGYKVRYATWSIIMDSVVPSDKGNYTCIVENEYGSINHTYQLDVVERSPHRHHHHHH
Description: SPR as in Example 1.8. The protocol: as §1, §2

Assay [8] concerns the target T8, FGFR1 D2 point mutant A99G (human, UniProt P11362 22-254).
T8 chain: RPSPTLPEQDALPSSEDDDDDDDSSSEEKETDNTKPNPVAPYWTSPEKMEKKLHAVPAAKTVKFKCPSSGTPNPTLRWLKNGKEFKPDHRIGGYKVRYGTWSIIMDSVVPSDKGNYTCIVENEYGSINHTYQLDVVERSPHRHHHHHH
Description: SPR as in Example 1.8. How it is done:
as §1, §2

Assay [9] has as its target T9, FGFR1 D2 point mutant E47A (human, UniProt P11362 22-254).
T9 chain: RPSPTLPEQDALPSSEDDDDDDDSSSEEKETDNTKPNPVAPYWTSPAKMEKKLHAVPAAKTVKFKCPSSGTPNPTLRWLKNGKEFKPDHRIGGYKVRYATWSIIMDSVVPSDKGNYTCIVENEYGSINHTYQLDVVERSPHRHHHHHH
Description: SPR as in Example 1.8. How it is done:
as §1, §2

B1: mAb #A08 (antibody, V domains shown)
VH: EVQLQESGPGLVKPSGTLSLTCAVSGGSISSNNWWSWVRQPPGKGLEWIGEIYHSGSTSYNPSLKSRVTISVDKSKNQFSLKLNSVTAADTAVYYCARGTDWFDPWGQGTLVTVSS
VL: QAVLTQPPSVSVAPGQTARITCGGNNIGSESVHWYQQKPGQAPVLVVYDDSDRPSGIPERFSGSNSGNTATLTISRVEAGDEADYYCQVWDSTSDHRVFGGGTKLTVL
notes: Only variable domains are tied to the name mAb #A08 (hit); also called #A08 hit; mAb #08
B1: the “EC50 (read off the curve)” value in assay [1] is around 0.03 nM. Besides, the Kd is 0.23 nM in [2]; 0.27 nM in assay [3]; 0.22 nM in assay [4]; 0.21 nM in [5]; 0.48 nM in assay [6]; 0.28 nM in [7]. The Kd in [8] worked out at 0.18 nM; in assay [9] it was 0.26 nM.
